The target of this assay is human CD1a expressed on cells (human) (UniProt P06126). Kind of assay: cell-based or functional assay.
Chain of human CD1a expressed on cells (human) (P06126 17-327): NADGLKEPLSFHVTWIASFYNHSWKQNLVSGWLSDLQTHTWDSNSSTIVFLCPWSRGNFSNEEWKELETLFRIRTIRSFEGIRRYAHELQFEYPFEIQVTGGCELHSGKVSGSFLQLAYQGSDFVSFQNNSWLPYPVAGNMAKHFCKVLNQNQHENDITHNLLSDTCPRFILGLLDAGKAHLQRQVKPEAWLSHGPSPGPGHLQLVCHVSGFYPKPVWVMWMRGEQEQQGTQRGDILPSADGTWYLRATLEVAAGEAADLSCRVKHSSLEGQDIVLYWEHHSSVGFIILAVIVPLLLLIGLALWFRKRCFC

As to “Human IgG1 (EFN) isotype control (antibody)”, the CD69 expression, IC50 is above 100 nM and the IL-2 secretion, IC50 is above 100 nM.
As to OKT6-human IgG1 (EFN) (antibody), the CD69 expression, IC50 stood at 0.042 nM and the IL-2 secretion, IC50 is 0.028 nM.
